Data taken from PMC5612097, “Discovery of a microbial transglutaminase enabling highly site-specific labeling of proteins” (The Journal of Biological Chemistry, 2017).
Where no end group is shown, it is not given here. The star is where a group is joined. Cbz = O=C(OCc1ccccc1)*

B1: Z-… (peptide)
peptide: Cbz-GGGYRYRQGGGG
B2: Z-… (peptide)
peptide: Cbz-GGGDYALQGGGG

Columns and labels:
KalbTG = biological target: T1, KalbTG (Kutzneria viridogrisea, UniProt W5WHY8); assay: peptide array transamidation, Cy5-streptavidin fluorescence; assay type: biochemical; details: 50 uM amine donor with 5-mer Gln peptides; 100 mM Tris-HCl, pH 8, 1 mM DTT, 37 °C, 45 min
T1 construct: gene KALB_7456; E. coli; predicted signal peptide removed; N-terminal 2x SlyD (E. coli) chaperone tag with factor Xa site (cut off for some applications), N-terminal MGGGSTTAQAAAVAAPTPR, C-terminal GGGS-His8
T1 sequence (W5WHY8 entry or part of it): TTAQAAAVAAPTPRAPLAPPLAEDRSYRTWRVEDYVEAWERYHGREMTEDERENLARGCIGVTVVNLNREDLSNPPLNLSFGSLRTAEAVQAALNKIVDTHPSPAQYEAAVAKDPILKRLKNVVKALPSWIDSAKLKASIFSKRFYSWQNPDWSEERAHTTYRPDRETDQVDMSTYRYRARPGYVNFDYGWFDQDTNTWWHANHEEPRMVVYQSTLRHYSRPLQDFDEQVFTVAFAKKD

[1] = biological target: microbial transglutaminase (MTG) from Streptomyces mobaraensis, engineered enzyme from Zedira (Streptomyces mobaraensis) (UniProt P81453)
[2] = biological target: microbial transglutaminase from Kutzneria albida (KalbTG) (Kutzneria albida DSM 43870)

Molecule | peptide array transamidation, Cy5-streptavidin fluorescence (KalbTG) | Km in the GLDH-coupled transglutaminase activity assay (37 °C, peptide 0-1 mM, 1 mM cadaverine as amine donor) [1] [µM] | Km in the GLDH-coupled transglutaminase activity assay (37 °C, peptide 0-1 mM, 1 mM cadaverine as amine donor) [2] [µM]
NCCCCCNC(=O)CCCC[C@@H]1SC[C@@H]2NC(=O)N[C@@H]21 [N-(biotinyl)cadaverine] | N-(biotinyl)cadaverine (Zedira) was used as a substitute for a Lys substrate to biotinylate Gln peptides | – | –
B1 | – | 644 | 2150
B2 | – | 847 | –
